B1: myeloid differentiation protein-2 (MD-2) (natural protein, human, UniProt Q9Y6Y9 19-160, looked up)
chain: QKQYWVCNSSDASISYTYCDKMQYPISINVNPCIELKRSKGLLHIFYIPRRDLKQLYFNLYITVNTMNLPKRKEVICRGSDDDYSFCRALKGETVNTTISFSFKGIKFSKGKYKCVVEAISGSPEEMLFCLEFVILHQPNSN
notes: also called hMD-2

Assays:
[1] = molecular target: B1; experiment: SPR; BIAcore 3000; TFE, TOY3 or TOY8 (1 µg) amine-coupled (NHS/EDC) on a CM5 chip at about 2,000 RU; BSA on a control portion of the chip; recombinant MD-2 flowed over; nonlinear curve fitting with BIAEVALUATION; details: both partners purified
[2] = molecular target: T1, TLR4 full-length ectodomain fused to IgG-Fc (TFE) (human, UniProt O00206 27-631); experiment: as above; details: both partners purified
T1 construct: Toll-like receptor 4 (TLR4), human, full-length ectodomain, amino acid residues 27-631; Disulfide-linked dimer through the Fc domain (non-reducing SDS-PAGE); N-glycosylated; source: recombinant CHO cells (dhfr-deficient, MTX amplification), secreted, purified (Protein-A sepharose); not shown: Fc (human IgG1), C-terminal, kept

Binder	Kd [1]	Kd [2]
TLR4 decoy receptor-3 (TOY3) (Fc fusion, N-glycosylated (CHO). TLR4 27-227 limits are printed; VLRB.61 fragment limits are only in a figure, so taken from the TV3 hybrid crystal construct (PDB 2Z62, recalled from memory). Hagfish species …) EPCVEVVPNITYQCMELNFYKIPDNLPFSTKNLDLSFNPLRHLGSYSFFSFPELQVLDLSRCEIQTIEDGAYQSLSHLSTLILTGNPIQSLALGAFSGLSSLQKLVAVETNLASLENFPIGHLKTLKELNVAHNLIQSFKLPEYFSNLTNLEHLDLSSNKIQSIYCTDLRVLHQMPLLNLSLDLSLNPMNFIQPGAFKEIRLKELALDTNQLKSVPDGIFDRLTSLQKIWLHTNPWDCSCPRIDYLSRWLNKNSQKEQGSAKCSGSGKPVRSIICP	~0.076 µM	–
TLR4 decoy receptor-8 (TOY8) (Fc fusion, N-glycosylated (CHO). TLR4 27-527 limits are printed; VLRB.61 fragment limits are only in a figure, so taken from the TV8 hybrid crystal construct (PDB 2Z63, recalled from memory). Hagfish species …) EPCVEVVPNITYQCMELNFYKIPDNLPFSTKNLDLSFNPLRHLGSYSFFSFPELQVLDLSRCEIQTIEDGAYQSLSHLSTLILTGNPIQSLALGAFSGLSSLQKLVAVETNLASLENFPIGHLKTLKELNVAHNLIQSFKLPEYFSNLTNLEHLDLSSNKIQSIYCTDLRVLHQMPLLNLSLDLSLNPMNFIQPGAFKEIRLHKLTLRNNFDSLNVMKTCIQGLAGLEVHRLVLGEFRNEGNLEKFDKSALEGLCNLTIEEFRLAYLDYYLDDIIDLFNCLTNVSSFSLVSVTIERVKDFSYNFGWQHLELVNCKFGQFPTLKLKSLKRLTFTSNKGGNAFSEVDLPSLEFLDLSRNGLSFKGCCSQSDFGTTSLKYLDLSFNGVITMSSNFLGLEQLEHLDFQHSNLKQMSEFSVFLSLRNLIYLDISHTHTRVAFNGIFNGLSSLEVLKMAGNSFQENFLPDIFTELRNLTFLDLSQCQLEQLSPTAFNSLSSLQVLNMASNQLKSVPDGIFDRLTSLQKIWLHTNPWDCSCPRIDYLSRWLNKNSQKEQGSAKCSGSGKPVRSIICP	~0.056 µM	–
B1	–	~0.081 µM
